{"source": "paper PMC10397247", "experiment_in_all_cases": "two-hybrid library CCNG1;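 also: natural log of median RNA to DNA barcode read ratio; higher means stronger binding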", "key": {"P4SHb": {"biological_target": "T1, P4SHb", "T1 chain": "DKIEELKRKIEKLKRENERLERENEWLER"}, "P7SHb": {"biological_target": "T2, P7SHb", "T2 chain": "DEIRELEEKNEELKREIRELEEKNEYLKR"}, "P12SHb": {"biological_target": "T3, P12SHb", "T3 chain": "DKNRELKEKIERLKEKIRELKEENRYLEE"}, "P9SHb": {"biological_target": "T4, P9SHb", "T4 chain": "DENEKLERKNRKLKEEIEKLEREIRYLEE"}, "P3SHb": {"biological_target": "T5, P3SHb", "T5 chain": "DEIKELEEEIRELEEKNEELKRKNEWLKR"}, "P6SHb": {"biological_target": "T6, P6SHb", "T6 chain": "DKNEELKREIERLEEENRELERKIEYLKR"}, "P2SHb": {"biological_target": "T7, P2SHb", "T7 chain": "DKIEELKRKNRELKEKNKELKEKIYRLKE"}, "P1SHb": {"biological_target": "T8, P1SHb", "T8 chain": "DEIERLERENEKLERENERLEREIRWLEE"}, "P8SHb": {"biological_target": "T9, P8SHb", "T9 chain": "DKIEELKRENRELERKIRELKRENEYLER"}, "P5SHb": {"biological_target": "T10, P5SHb", "T10 chain": "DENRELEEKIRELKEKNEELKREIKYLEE"}}, "data": [{"binder": "DKNRELKEKIERLKEKIRELKEENRYLEE", "note": "[P12SHb]", "values": [{"measurement": "interaction score", "setting": "P4SHb", "value": -0.198}, {"measurement": "interaction score", "setting": "P7SHb", "value": -0.593}, {"measurement": "interaction score", "setting": "P12SHb", "value": -0.206}, {"measurement": "interaction score", "setting": "P9SHb", "value": 1.48}, {"measurement": "interaction score", "setting": "P3SHb", "value": 0.41}, {"measurement": "interaction score", "setting": "P6SHb", "value": 0.412}, {"measurement": "interaction score", "setting": "P2SHb", "value": -1.12}, {"measurement": "interaction score", "setting": "P1SHb", "value": -1.47}, {"measurement": "interaction score", "setting": "P8SHb", "value": -0.747}, {"measurement": "interaction score", "setting": "P5SHb", "value": 0.0253}]}]}
